Assay [1] addresses T1, recombinant PTPRD-his protein, extracellular domain (Creative BioMart, PTPRD-36H) (Homo sapiens (Human), UniProt P23468 21-1265, biotinylated with EZ-Link-Sulfo-NHS-Biotin in the BLI assay).
T1 construct: only the extracellular domain stood in the assay; Used in the co-immunoprecipitation and in BLI; also called rPTPRD-his; PTPRD-6his; not shown: 6xHis tag
T1 sequence: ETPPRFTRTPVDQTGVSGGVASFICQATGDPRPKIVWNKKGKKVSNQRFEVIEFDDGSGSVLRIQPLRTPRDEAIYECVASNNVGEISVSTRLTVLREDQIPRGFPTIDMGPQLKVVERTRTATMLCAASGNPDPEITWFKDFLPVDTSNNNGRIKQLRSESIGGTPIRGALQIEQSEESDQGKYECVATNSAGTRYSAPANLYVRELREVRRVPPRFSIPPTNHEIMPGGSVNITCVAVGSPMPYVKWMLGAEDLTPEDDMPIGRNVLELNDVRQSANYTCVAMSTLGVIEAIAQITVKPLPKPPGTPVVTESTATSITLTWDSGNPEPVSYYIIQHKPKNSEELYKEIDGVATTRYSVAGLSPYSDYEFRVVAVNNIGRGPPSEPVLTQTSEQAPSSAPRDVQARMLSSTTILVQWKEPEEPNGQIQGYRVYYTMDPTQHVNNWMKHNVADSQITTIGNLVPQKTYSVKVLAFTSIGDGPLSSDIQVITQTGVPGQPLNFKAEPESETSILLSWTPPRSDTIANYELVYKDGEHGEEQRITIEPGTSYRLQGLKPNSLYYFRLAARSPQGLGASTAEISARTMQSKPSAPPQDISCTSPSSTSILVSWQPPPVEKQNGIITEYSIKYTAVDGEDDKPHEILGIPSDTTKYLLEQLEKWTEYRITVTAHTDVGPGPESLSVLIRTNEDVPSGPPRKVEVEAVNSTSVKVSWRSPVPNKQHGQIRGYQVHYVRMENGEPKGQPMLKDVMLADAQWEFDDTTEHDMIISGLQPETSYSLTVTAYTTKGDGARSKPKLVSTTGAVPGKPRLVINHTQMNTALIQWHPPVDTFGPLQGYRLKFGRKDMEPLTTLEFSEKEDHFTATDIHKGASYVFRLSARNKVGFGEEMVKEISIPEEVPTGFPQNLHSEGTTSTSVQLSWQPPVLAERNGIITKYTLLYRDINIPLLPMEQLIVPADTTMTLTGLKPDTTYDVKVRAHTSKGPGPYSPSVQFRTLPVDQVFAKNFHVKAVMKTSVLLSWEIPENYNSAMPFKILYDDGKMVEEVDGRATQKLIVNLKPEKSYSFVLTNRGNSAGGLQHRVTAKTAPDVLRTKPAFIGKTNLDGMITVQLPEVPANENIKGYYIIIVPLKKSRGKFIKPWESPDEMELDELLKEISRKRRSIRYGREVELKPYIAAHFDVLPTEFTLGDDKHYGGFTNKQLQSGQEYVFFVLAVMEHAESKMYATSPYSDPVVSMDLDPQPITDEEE
Put plainly: bio-layer interferometry (Octet RED96), biotinylated PTPRD on SSA biosensors, asprosin 1.23-900 nM, 1:1 global fit. Here is the method: (§1) Binding affinity of asprosin to PTPRD was measured on Pall ForteBio's Octet RED96 system. The PTPRD protein (Creative BioMart, PTPRD-36H) was labeled with Biotin using EZ-Link-Sulfo-NHS-Biotin (ThermoFisher Scientific, 21217) and desalted by Zeba™ Spin Desalting Columns. The biotin-labeled PTPRD (20 μg/ml) was loaded on the super streptavidin (SSA) biosensors for 300 seconds. Following 20 seconds of baseline in kinetics buffer, the loaded biosensors were dipped into a series of 3-fold diluted human asprosin (1.23-900 nM) for 300 seconds to record association kinetics and then dipped into a kinetic buffer for 600 seconds to record dissociation kinetics. Kinetic buffer without asprosin was set to correct the background. For fitting of KD value, ForteBio's data analysis software was used to fit the curve by a 1:1 binding model and the global fitting method was applied.

Assay [2] addresses T2, PTPRD extracellular domain, His-tagged (Acro Biosystems, PTD-H52H9) (Homo sapiens (Human), UniProt P23468 21-1265).
T2 construct: only the extracellular domain stood in the assay; also called rPTPRD; rPTPRD-LBD; not shown: His tag (labelled with the His-Tag Labeling Kit RED-tris-NTA)
T2 sequence: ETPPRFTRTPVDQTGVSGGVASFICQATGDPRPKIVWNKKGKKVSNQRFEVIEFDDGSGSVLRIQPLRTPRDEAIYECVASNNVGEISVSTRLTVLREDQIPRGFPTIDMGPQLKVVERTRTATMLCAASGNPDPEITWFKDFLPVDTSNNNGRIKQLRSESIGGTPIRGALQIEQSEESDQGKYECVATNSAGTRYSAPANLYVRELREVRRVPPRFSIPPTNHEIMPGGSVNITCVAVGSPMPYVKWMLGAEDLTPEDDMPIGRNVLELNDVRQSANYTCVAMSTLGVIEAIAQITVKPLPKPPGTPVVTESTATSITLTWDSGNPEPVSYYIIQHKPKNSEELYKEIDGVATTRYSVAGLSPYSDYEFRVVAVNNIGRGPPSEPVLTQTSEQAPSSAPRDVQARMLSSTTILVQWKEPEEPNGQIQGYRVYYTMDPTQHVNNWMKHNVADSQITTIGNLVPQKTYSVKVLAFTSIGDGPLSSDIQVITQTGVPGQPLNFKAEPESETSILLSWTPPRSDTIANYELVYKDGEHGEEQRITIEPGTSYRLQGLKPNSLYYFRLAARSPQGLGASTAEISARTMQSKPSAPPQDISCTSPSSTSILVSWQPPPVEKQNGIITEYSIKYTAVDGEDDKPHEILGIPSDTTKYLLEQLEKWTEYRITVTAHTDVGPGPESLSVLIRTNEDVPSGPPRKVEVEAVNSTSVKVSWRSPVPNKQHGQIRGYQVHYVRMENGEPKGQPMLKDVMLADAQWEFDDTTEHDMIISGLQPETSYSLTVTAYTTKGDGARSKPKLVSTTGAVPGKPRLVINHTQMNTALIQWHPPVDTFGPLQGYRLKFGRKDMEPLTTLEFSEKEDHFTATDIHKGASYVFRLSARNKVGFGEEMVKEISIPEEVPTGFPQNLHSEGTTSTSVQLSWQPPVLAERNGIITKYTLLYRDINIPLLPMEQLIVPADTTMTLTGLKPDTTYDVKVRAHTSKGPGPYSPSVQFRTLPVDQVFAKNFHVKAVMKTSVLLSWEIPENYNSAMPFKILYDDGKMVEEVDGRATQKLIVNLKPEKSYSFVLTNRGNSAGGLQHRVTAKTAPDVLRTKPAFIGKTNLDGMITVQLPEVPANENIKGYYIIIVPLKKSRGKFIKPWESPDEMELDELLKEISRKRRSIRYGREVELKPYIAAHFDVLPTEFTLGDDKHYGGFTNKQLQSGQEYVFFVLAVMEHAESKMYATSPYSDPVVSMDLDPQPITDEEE
Put plainly: microscale thermophoresis, fluorescently labelled PTPRD, unlabelled asprosin titrated. Here is the method:
The microscale thermophoresis (MST) assay was performed with the Monolith NT.115 from NanoTemper Technologies. PTPRD (Acro Biosystems, PTD-H52H9) was fluorescently labeled according to the manufacturer's protocol (His-Tag Labeling Kit RED-tris-NTA, NanoTemper). A solution of unlabeled asprosin was serially diluted according to the manufacturer's protocol. After labeled PTPRD and unlabeled asprosin were mixed and incubated at room temperature for 30 minutes, samples were loaded into glass capillaries (Monolith NT.115 Capillaries, NanoTemper). Measurements were carried out according to manufacturer's protocol: 40% power and 40% MST power. Assays were repeated three times and KD's were calculated using the NanoTemper analysis software.
A general note: Microscale thermophoresis detects binding through changes in fluorescence in a small temperature gradient.

The target of assay [3] is T1, recombinant PTPRD-his protein, …. Put plainly: bio-layer interferometry (Octet RED96), biotin-labelled PTPRD on super streptavidin biosensors, asprosin 1.23-900 nM in solution, 1:1 global fit. Here is the method: as §1
A general note: In BLI a coated tip is dipped into the sample, and binding shifts an interference pattern.

Assay [4] deals with T2, PTPRD extracellular domain, His-tagged …. Put plainly: SPR (Biacore T200), PTPRD amine-coupled on CM5 chip, asprosin injected, steady-state analysis. The protocol:
Surface plasmon resonance (SPR) studies were performed using Biacore T200 with PTPRD (Acro Biosystems, PTD-H52H9) covalently immobilized on an S series CM5 sensor chip via amine coupling. To avoid protein aggregation, […] used in SPR experiments were purified by gel filtration in a buffer containing 25 mM Tris-HCl (pH 8.0), 100 mM NaCl and 5 mM DTT, stored at 4° C., and used within 48 hr with minimum concentration process. Asprosin was injected in a series of concentrations from […] to 7.8125 nM was injected at 30 μl/min over the sensor chip at room temperature. Sensorgram traces subtracted with the reference and zero-concentration traces were analyzed using BIA Evaluation software (GE Healthcare Bio-Sciences). Nonlinear steady-state analysis was performed to compute Kd.
For orientation: SPR reads the build-up and loss of mass on a sensor chip optically.

From US20240424057A1 (CASE WESTERN RESERVE UNIVERSITY, published 2024) come the findings set out here.

B1: recombinant human asprosin (ligand, UniProt P35555 2732-2871, looked up)
chain: STNETDASNIEDQSETEANVSLASWDVEKTAIFAFNISHVSNKVRILELLPALTTLTNHNRYLIESGNEDGFFKINQKEGISYLHFTKKKPVAGTYSLQISSTPLYKKKELNQLEDKYDKDYLSGELGDNLKMKIQVLLH
notes: domain: cleaved asprosin; Unlabelled analyte in SPR, MST and BLI, and the recombinant asprosin used in IP/MS, ELISA and slice electrophysiology; Only the BLI and ELISA methods call it human; also called rAsprosin; recombinant asprosin
As to B1, the Kd (commonly the constant that tells how readily two partners part at equilibrium) in assay [1] was found to be 57 nM; in assay [2] it was 4.2 nM; in assay [4] it was 36.8 nM. Further, the koff – broadly, the first-order rate constant of dissociation – in assay [3] was 0.000377 s⁻¹. The kon (as a rule, the second-order rate constant of association) in assay [3] was found to be 6610 M⁻¹ s⁻¹.
